According to US20240287208A1 (CONCEPT TO MEDICINE BIOTECH, published 2024):
Numbering of substitutions follows the chain as printed. Like-named read-outs stand apart in the source and are kept apart here.

T1: human OX40 protein (human, UniProt P43489 29-216, limits assumed)
T1 sequence (looked up): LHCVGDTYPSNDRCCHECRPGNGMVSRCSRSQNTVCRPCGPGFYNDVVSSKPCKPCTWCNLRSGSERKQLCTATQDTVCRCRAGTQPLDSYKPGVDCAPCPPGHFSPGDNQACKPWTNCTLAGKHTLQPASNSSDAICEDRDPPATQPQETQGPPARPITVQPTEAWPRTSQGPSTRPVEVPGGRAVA

T2: human 5T4 (human, UniProt Q13641 32-355, limits assumed)
T2 construct: also called hu5T4
T2 sequence (looked up): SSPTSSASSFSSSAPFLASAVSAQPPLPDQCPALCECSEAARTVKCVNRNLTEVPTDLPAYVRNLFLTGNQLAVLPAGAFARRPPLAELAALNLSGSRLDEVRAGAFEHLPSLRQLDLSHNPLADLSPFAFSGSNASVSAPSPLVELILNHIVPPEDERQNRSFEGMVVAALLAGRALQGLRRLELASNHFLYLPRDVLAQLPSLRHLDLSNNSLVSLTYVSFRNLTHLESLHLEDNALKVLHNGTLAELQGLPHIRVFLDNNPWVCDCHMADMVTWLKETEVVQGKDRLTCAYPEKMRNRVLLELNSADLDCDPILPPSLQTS

B1: 2p931 chimeric monospecific antibody (antibody, V domains shown)
VH: AVQLVESGGGLVQPGGSLRLSCAASGFSFRNYMMNWVRQAPGKGLECLSSITSAGDITSYTESVKGRFTISRDNAKNTLYLQMNSLKPEDTAVYYCAQGGCGNYYRESWGQGTQVTVSS
notes: Chimeric monospecific antibody
B2: 2p80 chimeric monospecific antibody (antibody, V domains shown)
VH: QLQLVESGGGLVQAGGSLRLSCAASGRIFSSYAMSWFRQAPGKEREFVATIGWIGENTYYADSVKGRFTISRDNAKNTLYLQMNSLKPEDTAVYYCAAGLPANRYYDYWGQGTQVTVSS
notes: Chimeric monospecific antibody; also called 2p80 cAb
B3: 14G12 anti-5T4 mouse monoclonal antibody (antibody, V domains shown)
VH: EVQLQQSGPELVKPGASVKISCKASGYAFSSSWMNWVKQRPGKGLEWIGRIYREDGHTNYNGKFKGKATLTADKSSTTAYMQLTSLTSEDSAVYFCANGGAMDYWGQGTSVTVSS
VL: DIQMTQSTSSLSASLGDRVTISCRASQDISNYLNWYQQKPDGTVKLLIYYTSRLHSGVPSRFSGSGSGTDYSLTISNLEQEDIATYFCQQDNTLPWTFGGGTKLEIK
notes: Mouse monoclonal antibody from hybridoma
B4: 393E9 anti-5T4 mouse monoclonal antibody (antibody, V domains shown)
VH: EVKLVESGGGLVQPGGSLSLSCAASGFTFTDYYMSWVRQPPGKALEWLGFIRNKGNGYTTENSASVKGRFTISRDNSQSILYLQMNALRAEDSATYYCARYRGNPHYAMDYWGQGTSVTVSS
VL: DIVLTQFPASLAVSLGQRATISCRASESVEFYGTSFLQWYQQKPGQPPKLLIYGASNVESGVPARFSGSGSGTDFSLSIHPVEEDDIAMYFCQQSRKVPSTFGGGTKLEIK
notes: as for B3
B5: 286B4 anti-5T4 mouse monoclonal antibody (antibody, V domains shown)
VH: DVQLHESGPGLVKPSQSLSLTCSVTGYSITNNYYWNWIRQFPGNNLEWMGYITYDGSNNYNPSLKNRISVTRDTSKNQFFLKLSSVTTEDTATYYCTRGGGQLRFDYWGQGTTLTVSS
VL: SIVMTQTPKFLIVSAGDRVTITCKASQSVSNEVTWYQQKPGQSPKMLIYYASNRYTGVPDRFTGSGYGTDFTFTINTVQAEDLAIYFCQQDYSSPWTFGGGTKLEIK
notes: as for B3
B6: 2p834 chimeric monospecific antibody (antibody, V domains shown)
VH: QSQLVESGGGLVQPGGSLRLSCAASGFAFRRYTMSWVRQAPGKGLEWVSTITHNGSITTYAESAQGRFTISRDNAKNTLYLQMNSLKPEDTAVYYCAQGGGSNYYRESWGQGTQVTVSS
notes: as for B1
B7: 3p78 chimeric monospecific antibody (antibody, V domains shown)
VH: B6 VH with Q1P, S2V, A28T, R31N, T33A, S56A
notes: as for B1
B8: 2p442 chimeric monospecific antibody (antibody, V domains shown)
VH: QVQLVESGGGLVQPGGSLRLSCVASGFTLDYFAIGWFRQAPGKEREGVSCISGGGSTRYADSVKGRFTISRDNAKNTVYLQMNSLTPEDTAVYYCAAARLLSRNCVPRDSGSWGQGTQVTVSS
notes: Chimeric monospecific antibody; also called parental 2p442
B9: 159D5 anti-5T4 mouse monoclonal antibody (antibody, V domains shown)
VH: DVQLVESGGGLVQPGGSRKLSCTASGFTFSNFGMHWVRQAPETGLEWVAYISSGSSTFYYADSVKGRFTISRDNPKNTLFLQMTSLRSEDTAMYFCARSPAYYRYGLDYWGQGTTLTVSS
VL: DIVLTQSPASLAVSLGQRATISCRASQSVSSSTFSYMHWYQQKPGQPPKLLIKSSSNLESGVPARFSGSGSGTDFTLNIHPVEEEDTATYYCQHSWEIPYTFGGGTKLEIK
notes: as for B3

What was measured:
[1] = molecular target: T3, human CD40 on the cell surface (human, UniProt P25942 21-277); assay: cell-based or functional assay
T3 sequence (P25942 21-277): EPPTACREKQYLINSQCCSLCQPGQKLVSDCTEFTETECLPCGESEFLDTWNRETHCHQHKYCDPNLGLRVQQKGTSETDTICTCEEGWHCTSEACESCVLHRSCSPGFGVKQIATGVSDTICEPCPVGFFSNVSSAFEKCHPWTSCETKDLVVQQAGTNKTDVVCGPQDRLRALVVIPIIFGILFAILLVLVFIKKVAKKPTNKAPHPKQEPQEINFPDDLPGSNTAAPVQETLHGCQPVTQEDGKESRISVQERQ

[2] = molecular target: T4, human 4-1BB protein (human, UniProt Q07011 24-186); assay: ELISA, plate-coated protein
T4 construct: also called 4-IBB
Procedure: (§1) To evaluate the cross reactivity of chimeric anti-CD40 antibodies to other family members of TNF receptors, the ELISA binding towards human 4-1BB and human OX40 were performed.
(§2) Briefly, microtiter plates were coated with human 4-1BB protein or human OX40 protein at 1 μg/ml in PBS, 100 μl/well at 4° C. overnight, then blocked with 150 μl/well of 1% BSA. Ten-fold dilutions of 42p155, 2p834, 2p931, 42p655, 2p1294, 2p957, 42p495, 3p78, 2p415, 2p442, 2p551, 2p80 and 2p1130 antibodies starting from 100 nM were added to each well and incubated for 1 hour at RT. The plates were washed with PBS/Tween and then incubated with Anti-Human IgG (H&L) (GOAT) Antibody Peroxidase Conjugated for 30 mins at RT. After washing, the plates were developed with TMB substrate and analyzed by spectrophotometer at OD 450 nm.

[3] = molecular target: T1, human OX40 protein; assay: ELISA, plate-coated protein
Procedure: as §1, §2

[4] = molecular target: T5, human CD40-His protein (human, UniProt P25942 21-193); assay: ELISA, plate-coated human CD40-His
T5 construct: His-tagged recombinant protein; also called human CD40-his tag; recombinant CD40 protein
T5 sequence (P25942 21-193 limits assumed): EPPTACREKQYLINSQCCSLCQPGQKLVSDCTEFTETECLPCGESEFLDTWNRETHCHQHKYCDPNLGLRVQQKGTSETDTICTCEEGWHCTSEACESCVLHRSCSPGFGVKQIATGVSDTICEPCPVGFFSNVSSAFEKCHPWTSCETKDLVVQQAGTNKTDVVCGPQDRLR
Procedure: (§3) To evaluate the binding activity of clones 42p155, 2p834, 2p931, 42p655, 2p1294, 2p957, 42p495, 3p78, 2p415, 2p442, 2p551, 2p80 and 2p1130, the chimeric monospecific antibody (mAb) from these clones were subjected to ELISA test, along with selicrelumab, the clinical benchmark anti-CD40 agonist antibodies.
as §2, with “human CD40-His” for “human 4-1BB protein or human OX40”, “at 1.0” for “at 1”, “150 µl/well” for “150 μl/well”

[5] = molecular target: T6, cynomolgus CD40-His protein (cynomolgus, UniProt G7PG38 21-193); assay: ELISA, plate-coated cynomolgus CD40-His
T6 construct: His-tagged recombinant protein; also called cyno CD40 antigen
Procedure: as §3
as §2, with “The binding affinity of these clones to cynomolgus CD40 was also tested. Microtiter plates” for “Briefly, microtiter plates”, “with cynomolgus CD40-His” for “with human 4-1BB protein or human OX40”, “at 1.0” for “at 1”, “100 µl/well” for “100 μl/well”, “150 µl/well” for “150 μl/well”, “nm. As shown in FIG. 1B and Table 2, all these clones bound to cynomolgus CD40 at high activity, showing good cross-reactivity between human and cynomolgus CD40 proteins.” for “nm.”

[6] = molecular target: T3, human CD40 on the cell surface; assay: FACS, Jurkat cells overexpressing human CD40, PE anti-human IgG, MFI
Procedure: (§4) To evaluate their binding affinity to cell surface CD40, chimeric anti-CD40 monospecific antibodies were tested in Jurkat cell lines that overexpressed CD40 by FACS. A total number of 1×10⁵ Jurkat-CD40 cells in each well were incubated with 10-fold serially diluted antibodies starting from 100 nM for 30 minutes at 4° C. in FACS buffer. After wash by FACS buffer, PE conjugated-anti-human IgG antibody was added to each well and incubated at 4° C. for 30 minutes. After wash, MFI of PE was evaluated by MACSQuant Analyzer 16.

[7] = molecular target: T5, human CD40-His protein; assay: SPR Biacore T200, antibody captured on Protein A, CD40-His as analyte
Procedure: Bispecific antibodies with each of the 42p155, 2p834, 2p931, 42p655, 2p1294, 2p957, 42p495, 3p78, 2p415, 2p442, 2p551 and 2p1130 clones, as well as 2p80 monospecific antibody, were captured using Protein A chip. A serial dilution of human CD40-his tag protein was injected over captured antibody for 2 mins at a flow rate of 30 μl/min. The antigen was allowed to dissociate for 6 min. All the experiments were carried out on a Biacore T200. Data analysis was carried out using the Biacore T200 evaluation software.

[8] = molecular target: T2, human 5T4; assay: competitive ELISA on human 5T4
[9] = molecular target: T5, human CD40-His protein; assay: BLI Octet RED96e, antibody captured on AHC, CD40-His as analyte
Procedure: The binding of the humanized 42p155 and 2p442 antibodies to recombinant human CD40 protein (human CD40-his tag) was tested by Biacore and Octet, respectively, using a capture method.
For humanized 2p442 monoclonal antibodies, 2p442z8, 2p442z9 and 2p442z10 were captured using AHC biosensor. A serial dilution of human CD40-his tag protein was incubated with captured antibody for 5 mins. The antigen was allowed to dissociate for 10 min. All the experiments were carried out on an Octet RED96e. Data analysis was carried out using Octet Analysis Studio 12.2 software.

[10] = molecular target: T3, human CD40 on the cell surface; assay: FACS, Jurkat cells overexpressing human CD40, PE anti-human IgG, MFI; remark: listed apart in the source
Procedure: as §4, with “the” for “their”, “affinity of humanized 2p442 monoclonal antibodies” for “affinity”, “2p442z8, 2p442z9, 2p442z10 and parental 2p442” for “chimeric anti-CD40 monospecific antibodies”, “3-fold” for “10-fold”

Binder	CD40 NF-κB luciferase reporter (Jurkat), RLU [1] [nM]	binding result [2]	binding result [3]	EC50 [4] [nM]	EC50 [5] [nM]	EC50 (read off the curve) [6] [nM]	binding result [8]	also measured
B1	> 10	no binding (tested: 100 nM (highest concentration))	no binding (tested: 100 nM (highest concentration))	0.99	0.26	~0.2		
B2	> 10	no binding (tested: 100 nM (highest concentration))	no binding (tested: 100 nM (highest concentration))	3.08	8.29			Kd [7]: 213 nM; koff [7]: 0.000293 s⁻¹; kon [7]: 1380 M⁻¹ s⁻¹
B3							binds	
B4							binds	
B5							binds	
B6	> 10	no binding (tested: 100 nM (highest concentration))	no binding (tested: 100 nM (highest concentration))	0.76	0.2	~0.2		
B7	> 10	no binding (tested: 100 nM (highest concentration))	no binding (tested: 100 nM (highest concentration))	2.95	2.84	~2		
B8	> 10	no binding (tested: 100 nM (highest concentration))	no binding (tested: 100 nM (highest concentration))	1.95	0.3			Kd [9]: 50.4 nM; koff [9]: 0.0269 s⁻¹; kon [9]: 534000 M⁻¹ s⁻¹; EC50 (read off the curve) [10]: ~0.2 nM
B9							binds	
